Results reported in article PMC9247503, “Oligomerization and Spatial Distribution of Kvβ1.1 and Kvβ2.1 Regulatory Subunits” (Frontiers in Physiology, 2022).
Where “and” joins values, the source holds several entries; their conditions need not be identical. Equal values may be shown once.

T1: Kvβ2.1CFP (mouse (from the prefix m in mKvβ2.1)), P62482
T1 chain: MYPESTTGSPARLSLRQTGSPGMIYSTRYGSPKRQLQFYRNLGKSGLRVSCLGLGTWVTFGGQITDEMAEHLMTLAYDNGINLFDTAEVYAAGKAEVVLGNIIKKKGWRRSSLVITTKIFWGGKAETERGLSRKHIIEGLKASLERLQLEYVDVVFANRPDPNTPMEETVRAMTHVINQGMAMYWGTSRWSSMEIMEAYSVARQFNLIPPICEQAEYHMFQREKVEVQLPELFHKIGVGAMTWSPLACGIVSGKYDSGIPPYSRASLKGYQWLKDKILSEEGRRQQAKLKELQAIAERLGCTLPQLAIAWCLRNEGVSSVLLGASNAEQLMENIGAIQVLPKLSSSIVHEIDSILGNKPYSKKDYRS

T2: Kvβ2.1YFP (mouse (from the prefix m in mKvβ2.1)), P62482
T2 chain: T1 chain

T3: Kvβ1.1CFP (mouse (from the prefix m in mKvβ1.1), UniProt P63143 1-401)
T3 construct: voltage-gated potassium channel regulatory subunit Kvβ1.1 (splice form 1.1 of Kvβ1), mouse by the prefix m in mKvβ1.1; also called mKvβ1.1 in pECFP-N1; Kvb1.1CFP; source: HEK-293, transfected; in lysate (co-IP) and in cells or membrane sheets (FRET)
T3 sequence (looked up): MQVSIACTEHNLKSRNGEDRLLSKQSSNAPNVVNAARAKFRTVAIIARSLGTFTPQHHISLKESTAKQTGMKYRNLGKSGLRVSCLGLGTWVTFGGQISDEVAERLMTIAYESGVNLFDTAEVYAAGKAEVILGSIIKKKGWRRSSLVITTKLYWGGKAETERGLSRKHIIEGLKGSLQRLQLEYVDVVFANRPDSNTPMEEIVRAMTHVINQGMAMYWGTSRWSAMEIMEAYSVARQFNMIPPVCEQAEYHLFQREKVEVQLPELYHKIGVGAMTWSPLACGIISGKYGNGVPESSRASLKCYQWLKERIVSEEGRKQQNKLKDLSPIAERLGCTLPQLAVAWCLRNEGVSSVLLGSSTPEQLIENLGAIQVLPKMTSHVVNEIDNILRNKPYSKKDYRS

B1: Kvβ2.1YFP, P62482 1-367 (natural protein)
chain: T1 chain
B2: Kvβ2.1YFP (natural protein, mouse (from the prefix m in mKvβ2.1), UniProt P62482 1-367, looked up)
chain: T1 chain
notes: voltage-gated potassium channel regulatory subunit Kvβ2.1, mouse by the prefix m in mKvβ2.1; also called mKvβ2.1 in pEYFP-N1; Kvb2.1 YFP; source: HEK-293, transfected; in cells or membrane sheets (FRET) and in lysate (semidenaturing gel)
B3: Kvβ2.1CFP (natural protein, mouse (from the prefix m in mKvβ2.1), UniProt P62482 1-367, looked up)
chain: T1 chain
notes: voltage-gated potassium channel regulatory subunit Kvβ2.1, mouse by the prefix m in mKvβ2.1; also called mKvβ2.1 in pECFP-N1; source: HEK-293, transfected; in lysate (co-IP) and in cells or membrane sheets (FRET)
B4: Kvβ1.1YFP (natural protein, mouse (from the prefix m in mKvβ1.1), UniProt P63143 1-401, looked up)
chain: T3 sequence (looked up)
notes: voltage-gated potassium channel regulatory subunit Kvβ1.1 (splice form 1.1 of Kvβ1), mouse by the prefix m in mKvβ1.1; also called mKvβ1.1 in pEYFP-N1; source: HEK-293, transfected; in cells or membrane sheets (FRET) and in lysate (semidenaturing gel)
B5: Kv1.3YFP (natural protein, UniProt P15384 1-525, looked up)
chain: MTVVPGDHLLEPEAAGGGGGDPPQGGCVSGGGCDRYEPLPPALPAAGEQDCCGERVVINISGLRFETQLKTLCQFPETLLGDPKRRMRYFDPLRNEYFFDRNRPSFDAILYYYQSGGRIRRPVNVPIDIFSEEIRFYQLGEEAMEKFREDEGFLREEERPLPRRDFQRQVWLLFEYPESSGPARGIAIVSVLVILISIVIFCLETLPEFRDEKDYPASPSQDVFEAANNSTSGASSGASSFSDPFFVVETLCIIWFSFELLVRFFACPSKATFSRNIMNLIDIVAIIPYFITLGTELAERQGNGQQAMSLAILRVIRLVRVFRIFKLSRHSKGLQILGQTLKASMRELGLLIFFLFIGVILFSSAVYFAEADDPSSGFNSIPDAFWWAVVTMTTVGYGDMHPVTIGGKIVGSLCAIAGVLTIALPVPVIVSNFNYFYHRETEGEEQAQYMHVGSCQHLSSSAEELRKARSNSTLSKSEYMVIEEGGMNHSAFPQTPFKTGNSTATCTTNNNPNSCVNIKKIFTDV
notes: voltage-gated potassium channel Kv1.3 (α subunit); Used as the tetrameric positive control; source: HEK-293, transfected; in cells (FRET) and in lysate (semidenaturing gel)

Legend:
[1] = target: T1, Kvβ2.1CFP (mouse (from the prefix m in …)); test: FRET or BRET; linear unmixing FRET (lux-FRET) on suspensions of living HEK-293 cells in PBS at 37°C, different donor molar ratios; fit of apparent EfD and EfA against xD gives E and n (units per complex); settings: remark: other sources report otherwise
[2] = target: T2, Kvβ2.1YFP (mouse (from the prefix m in …)); test: semidenaturing SDS-PAGE with immunoblot; total lysates of transfected HEK-293 cells, not boiled, 8% SDS-PAGE, immunoblot with anti-GFP antibody; settings: remark: other sources report otherwise
Kvβ1.1CFP = target: T3, Kvβ1.1CFP; test: FRET or BRET; linear unmixing FRET (lux-FRET) on suspensions of living HEK-293 cells in PBS at 37°C, different donor molar ratios; fit of apparent EfD and EfA against xD gives E and n (units per complex); settings: partners not purified
Kvβ1.1YFP = target: B4; test: as above; settings: partners not purified
[3] = target: the molecule itself; test: semidenaturing SDS-PAGE with immunoblot; total lysates of transfected HEK-293 cells, not boiled, 8% SDS-PAGE, immunoblot with anti-GFP antibody

B1
FRET efficiency (E) [1]: 22.3% | stoichiometry N [1]: 2.09 | stoichiometry N [2]: 2 and 4

B2
FRET efficiency (E) (Kvβ1.1CFP): 32.5% | stoichiometry N (Kvβ1.1CFP): 1.88

B3
FRET efficiency (E) (Kvβ1.1YFP): 30.4% | stoichiometry N (Kvβ1.1YFP): 1.99

B4
stoichiometry N [3]: 2 and 4 | FRET efficiency (E) (Kvβ1.1CFP): 30.2% | stoichiometry N (Kvβ1.1CFP): 1.93

B5
stoichiometry N [3]: 2 and 4
